Measured values reported in the DeepSol protein solubility set.

Assay: soluble on expression in E. coli; label from the status in PepcDB or PDB records

Sequence	soluble on expression in E. coli
MDTPENVLQMLEAHMQSYKGNDPLGEWERYIQWVEENFPENKEYLITLLEHLMKEFLDKKKYHNDPRFISYCLKFAEYNSDLHQFFEFLYNHGIGTLSSPLYIAWAGHLEAQGELQHASAVLQRGIQNQAEPREFLQQQYRLFQTRLTETHLPAQARTSEPLHNVQVLNQMITSKSNPGNNMACISKNQGSELSGVISSACDKESNMERRVITISKSEYSVHSSLASKVDVEQVVMYCKEKLIRGESEFSFEELRAQKYNQRRKHEQWVNEDRHYMKRKEANAFEEQLLKQKMDELHKKLHQVVETSHEDLPASQERSEVNPARMGPSVGSQQELRAPCLPVTYQQTPVNMEKNPREAPPVVPPLANAISAALVSPATSQSIAPPVPLKAQTVTDSMFAVASKDAGCVNKSTHEFKPQSGAEIKEGCETHKVANTSSFHTTPNTSLGMVQATPSKVQPSPTVHTKEALGFIMNMFQAPTLPDISDDKDEWQSLDQNEDAFEAQFQKNVRSSGAWGVNKIISSLSSAFHVFEDGNKENYGLPQPKNKPTGARTFGERSVSRLPSKPKEEVPHAEEFLDDSTVWGIRCNKTLAPSPKSPGDFTSAAQLASTPFHKLPVESVHILEDKENVVAKQCTQATLDSCEENMVVPSRDGKFSPIQEKSPKQALSSHMYSASLLRLSQPAAGGVLTCEAELGVEACRLTDTDAAIAEDPPDAIAGLQAEWMQMSSLGTVDAPNFIVGNPWDDKLIFKLLSGLSKPVSSYPNTFEWQCKLPAIKPKTEFQLGSKLVYVHHLLGEGAFAQVYEATQGDLNDAKNKQKFVLKVQKPANPWEFYIGTQLMERLKPSMQHMFMKFYSAHLFQNGSVLVGELYSYGTLLNAINLYKNTPEKVMPQGLVISFAMRMLYMIEQVHDCEIIHGDIKPDNFILGNGFLEQDDEDDLSAGLALIDLGQSIDMKLFPKGTIFTAKCETSGFQCVEMLSNKPWNYQIDYFGVAATVYCMLFGTYMKVKNEGGECKPEGLFRRLPHLDMWNEFFHVMLNIPDCHHLPSLDLLRQKLKKVFQQHYTNKIRALRNRLIVLLLECKRSRK	soluble
MSLSIKLIAVDIDGTLVNSQKEITPEVFSAIQDAKEAGVKVVIATGRPIAGVAKLLDDLQLRDQGDYVVTFNGALVQETATGHEIISESLTYEDYLDMEFLSRKLGVHMHAITKDGIYTANRNIGKYTVHESTLVSMPIFYRTPEEMAGKEIVKCMFIDEPEILDAAIEKIPAEFYERYSINKSAPFYLELLTKNVDKGSAITHLAEKLGLTKDETMAIGDEENDRAMLEVVGNPVVMENGNPEIKKIAKYITKTNDESGVAHAIRTWVLEGHHHHHH	soluble
MSNIYDWSLKADENAHSDNIINWAEGQPPSSVNDSARAMMQRVREYLADNGGSLDSTFIVNAEDKTTSIIVTTASPIEEYKNDIIIRFKAGGVNVGTTTVIVNNIEEKLLYKATNAGVTPLEGGELQRDAIYEMVYNKDVSMEDHGGWYLLNPTPLPPPKIETFPSGFIATFAMQEVPSGWLLCDGAVYERKDYPQLFKAIGDKWGKDSDTTFKVPDFRGMFLRGFDDGRGLDAGRQFADQQHDSIRSHTHIGTIEEAGEHTHKFQYYGVGWDSGDIGRRNPFYYRQSSTGVTQSAGAHTHDISLSPTGEAETRPVNTTVVYAIKS	not soluble
MDSGVEASGYPPVGRAKILLERAVNPIPSPRRELEQYTTPADIAVRIAVDALLRGLLEGALAADLAAGTCRLGLALLLYGASRVAAVEADGRLAGLCLGAAEKLGLGGRIFFVASRVSRRRGPLAAGSVDLVATNPPFGVWRRGADWEVLEYALRLKPRAVYAIVKSGNMGFHAAKAAGLGYSTLLISREHFPIPASMPGHRSRVRRVSVDVVLFTRGG	soluble
MSAVGEFPGSLGAKVFRLNGGLPGAKVGKNTGTSVKFGESSTQALIRAAYRQVFGRDLYEGQRLSVAEIQLENGDISVREFIKRLAKSELFLKLYWAPHYVCKAIEYMHRRLLGRPTYGRQEMNQYFDIASKQGFYAVVEAMIDSKEYSDAFGEDTVPYERYLEHHHHHH	soluble
MTEEILKQGVGIVETSLTFEPPFCESFERISIDNFPIFALGKEISKEDGIEAMKKYVTSRFWFTYRRDFSPIGGTGPSTDQGWGCMLRCAQMLLGEVLLRRHIGRHFEWDIEKTSEIYEKILQMFFDEKDALYSIHQIAQMGVTEGKEVSKWFGPNTAAQVMKKLTIFDDWSNIAVHVALDNILVKEDAITMATSYPSEDAVKLIMGKKGLQTTKRKNRKNLDFTVKYLKQIKFFKFFNLFQIFYENGLVDKNRLSLSPGNIIPEWRPLLLMIPLRLGLTTINPCYLSAIQEFFKIPQCVGIIGGRPNHALYFVGMSGSKLFYLDPHYCRPKTESTAKMYAEKDSTATTDDVGFSHLEELVPLPSQTADVYTKMDDSTYHCQMMLWIEYENVDPSLALAMFCETRDEFENLCETLQKTTLPASQPPMFEFLQRRPKYLPKFEPYTGVSMKIEMKEFDDIGAANVKIDDDFEVLDVHTEEEDADEDNDDDVANA	not soluble
MGSDKIHHHHHHQEKVSSMSEKSAPGSIQQPTRAQQLMGDIDPKLAELTDKVLFGDVWERKQLSKRDRSLVTVAALISLNRPDQLRSHMALALQNGVTREELVETITQLAFYTGWPNAVSAVPVARDVFRAADAAASHPDQGAQAQDDRTITVIHAGSQPSTHGSADHFTGSVQVDSRFQAQAPARSGGGIVTFEPGARTAWHTHPLGQTLIVTAGIGLVQQWGGPVQVIKPGDIVWIPPGVKHWHGATRTSGMTHIAIAEALDGKSVDWMELVMDAQYLGGQPR	not soluble
MGSDKIHHHHHHMQKESIYGLTREQLVDWFLAHGEKKFRATQVWEWLYTKRVASFSEMSNISKSLMTLLEENFSLNPLKQVIVQEAQDGTVKYLFELPDKNMIETVLMRQEYGLSVCVTTQVGCNIGCTFCASGLLKKQRDLTAGEIVAQIMWVQHYFDERGLDERVSHVVVMGIGEPFDNYANVMNFLRTINDDKGLAIGARHITVSTSGLVPKIREFADSGLQVNLAISLHAPNNEVRTSIMRINRSFPIEKLMAAIDEYIEKTNRRVTFEYIMLSQVNDRPEHAQQLADLLRNKKKLSYVNLIPYNPVSEHDQYSRSSKEAVLKFYDVLKKNGINCVIRKEHGTDIDAACGQLRSKQMKKEKVKNQ	not soluble
MSYYHHHHHHLESTSLYKKSSSTPPRGVTVVNNFDAKRYLGTWYEIARFDHRFERGLEKVTATYSLRDDGGLNVINKGYNPDRGMWQQSEGKAYFTGAPTRAALKVSFFGPFYGGYNVIALDREYRHALVCGPDRDYLWILSRTPTISDEVKQEMLAVATREGFDVSKFIWVQQPGS	soluble
MGHHHHHHSHVTNLNLATGIINRSSASAPPTLRPIISPSGPTWSTQSDPQAPENHSSSPGSSFI	not soluble
MSEKPIDKVFNRILVGVDDSADAQLAFRYAVRRAVKDNATLIITSILENDEMNVYQALTKDYVHGERYELVEHLKKYRDIAAKAGVKDIKEIVDEGNAGETIVKNVIPAVKADLLIIGSLSKKGISKYFGSQAAYMAKYAPISVLIIR	not soluble
MAHGFHASVMAITLDKITLTETTLTNPKAVEYQWVRTLYVQGYQPEAINHYIQTCFGGDETFADLFRRVAMHEESLYLLLQYLSCAPSSREF	soluble
MSGAAADGIDDRDIPKQEFLDAAFNGDIDKIDGLLRDKKVHIDSVDDDQVTALHIAAAMGNNKLVVRLLDYGANIHAVNHLGMTAYHYAAREGKLAVLDTLMQRGASKNQTTALGVTALTLACAGGHADVVRRLIRISNETPRSKQSLAPTPLIVATCSKSPQICSYLADFRVNLDESMKNLGNLTALSMAIVCTPGVYMVRTLIDLGASVNKKGLGDKTAEELAIMLNRKDLIHFFNEKKSYRSRMNADSDVRKEIKNDHIIERELGAPAQNGVSPLMYATTVRSINSAKHLVLHRDSDVNMRDNLHITSLQIASLLRVDDIIPLLLQRRADVTVVNKYGSTAYDLFLLSCDFLEPGQLRGQLHCHRPIDSKSNLNSSSSNIYKALRSQGILTKVGSQIGINSAKIELIEPKHWLAAKTKYQPAKLRNNYKFASVEDILKSCKVAKRPETNECDNETEAIREYMEECQSFAVFCFSDFYGERENNKATIPDYYDKAQDNAKRYAYLRMDGLDKKNSGRQENVSKLIPVRPRKDSIEREYRKPRNIALVDSPSQSQMRTTPRMLKKRDTDYFSAQAGRARASSTSLQVPTVTVTRQRHVTSPVIEDMIWNHFVRRGKNELMRVLQAAEIDKHSFFSLQQKDLEAMNSYTPENMKLIEDIQTAILSRSL	not soluble
MQWSKEEEAAARKKVKENSAVRVLLEEQVKYEREASKYWDTFYKIHKNKFFKDRNWLLREFPEILPVDQKPEEKARESSWDHVKTSATNRFSRMHCPTVPDEKNHYEKSSGSSEGQSKTESDFSNLDSEKHKKGPMETGLFPGSNATFRILEVGCGAGNSVFPILNTLENSPESFLYCCDFASGAVELVKSHSSYRATQCFAFVHDVCDDGLPYPFPDGILDVILLVFVLSSIHPDRTLFI	soluble
MQHSLRSDGAGFYQLACCEYSLSMRKIALSGGFWGGVCRMAMKSIFFMFHQGNRRLTLTAVQGILLRFSLF	not soluble
MQVLTTSRKPGRKTRRFAKVLARFFNWKYVNRGKLSLEDLAGIAERFWIISEVKGNPAILNLYERGEKTLEVSFTLSNVNKIKMDDSPAVFKGKAPIDPLVFGAIPQTKAGLKLTRKVEFRKKVVVKGDEWLFFYDDEMLFKLRILKISRSSR	not soluble
VIRPKTLGQKHYVDAIDTNTIVFGLGPAGSGKTYLAMAKAVQALQSKQVSRIILTRPAVEAGEKLGFLPGTLNEKIDPYLRPLHDALRDMVEPEVIPKLMEAGIVEVAPLAYMRGRTLNDAFVILDEAQNTTPAQMKMFLTRLGFGSKMVVTGDITQVDLPGGQKSGLRLVRHILRGVDDVHFSELTSSDVVRHQLVGHIVDAYEDYEEREARELKRKRQETRP	soluble
MKTYSEARARLRWYQGRYIDFDGWYGYQCADLAVDYIYWLLEIRMWGNAKDAINNDFKNMATVYENTPSFVPQIGDVAVFTKGIYKQYGHIGLVFNGGNTNQFLILEQNYDGNANTPAKLRWDNYYGCTHFIRPKYKSEGLMNKITNKVKPPAQKAVGKSASKITVGSKAPYNLKWSKGAYFNAKIDGLGATSATRYGDNRTNYRFDVGQAVYAPGTLIYVFEIIDGWCRIYWNNHNEWIWHERLIVKEVFLEHHHHHH	not soluble
SAVAVEGARRKERILCLFDVDGTLTPARQKIDPETIQNHLGEELLQDLINFCLSYMALLRLPKKRGTFIEFRNGMLNVSPIGRSCTLEERIEFSELDKKEKIREKFVEALKTEFAGKGLRFSRGGMISFDVFPEGWDKRYCLDSLDEDSFDIIHFFGNETSPGGNDFEIYADPRTVGHSVVSPQDTVQRCRELFFPETAHEA	soluble
MSSSAPKYTTFQGSQNFRLRIVLATLSGKPIKIEKIRSGDLNPGLKDYEVSFLRLIESVTNGSVIEISYTGTTVIYRPGIIVGGASTHICPSSKPVGYFVEPMLYLAPFSKKKFSILFKGITASHNDAGIEAIKWGLMPVMEKFGVRECALHTLKRGSPPLGGGEVHLVVDSLIAQPITMHEIDRPIISSITGVAYSTRVSPSLVNRMIDGAKKVLKNLQCEVNITADVWRGENSGKSPGWGITLVAQSKQKGWSYFAEDIGDAGSIPEELGEKVACQLLEEISKSAAVGRNQLPLAIVYMVIGKEDIGRLRINKEQIDERFIILLRDIKKIFNTEVFLKPVDEADNEDMIATIKGIGFTNTSKKIA	not soluble
VSDQFDAKAFLKTVTSQPGVYRMYDAGGTVIYVGKAKDLKKRLSSYFRSNLASRKTEALVAQIQQIDVTVTHTETEALLLEHNYIKLYQPRYNVLLRDDKSY	soluble
MPPLRQFLNRLLALTIRMQNVIFERFELLLSQQIETAIANGIFEAGVETLRAERFTIESCESVYTHPDTGSVTNYLKVEQVQRNNIRTAVEMLEFAAKYQGQLMVNQKSSNAAVSIPTHSIFDCDGGVVPRVLLVRPQKETRVPVEQLESSTWQQVSAEEFVTAWSREVDELPRFTTDYLHLVTGILLPIWKILPQKNSRVFRLQTSDGQKILGRVVHASDIQTVTEQLGLKNKLEHHHHHH	soluble
